From patent US6992063 (TRUSTEES OF PRINCETON UNIVERSITY, dated 2006)
Values belong to the binder of their own block, whether it stands above or below them.

T1: DIAP1-BIR1 (residues 1-145) (Drosophila, UniProt Q24306 1-145)
T1 construct: range 1-145; Expressed as a GST fusion; the GST moiety was removed by thrombin cleavage; also called BIR1 domain of DIAP1
T1 sequence (looked up): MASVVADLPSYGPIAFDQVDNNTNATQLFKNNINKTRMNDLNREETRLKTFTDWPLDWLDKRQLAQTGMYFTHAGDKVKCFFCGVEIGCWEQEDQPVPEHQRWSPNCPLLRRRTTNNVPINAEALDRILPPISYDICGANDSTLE

T2: DIAP1-BIR2 (residues 201-325) (Drosophila, UniProt Q24306 201-325)
T2 construct: range 201-325; Expressed as a GST fusion; the GST moiety was removed by thrombin cleavage; also called BIR2 domain of DIAP1; DIAP-BIR2
T2 sequence (looked up): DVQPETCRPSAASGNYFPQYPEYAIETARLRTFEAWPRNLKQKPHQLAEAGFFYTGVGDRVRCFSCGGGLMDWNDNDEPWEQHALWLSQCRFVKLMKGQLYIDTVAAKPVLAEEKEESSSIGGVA

T3: XIAP-BIR3 (residues 238-358), P98170
T3 chain: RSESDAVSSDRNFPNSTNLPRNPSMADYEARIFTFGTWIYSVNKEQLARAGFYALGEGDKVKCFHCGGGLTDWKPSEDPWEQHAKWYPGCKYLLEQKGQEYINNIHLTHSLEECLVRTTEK

T4: Smac (Phe33Asp, residues 1-162), monomeric mutant (human, UniProt Q9NR28 56-217, A selenomethionyl form (Met replaced by Se-Met) was used only for phasing. The native crystals hold the plain protein.)
T4 construct: Residues 1-162 and position 33 count on mature Smac, not on the precursor entry; Expressed in E. coli from pET-3d for crystallisation; a selenomethionyl form was used for phasing; also called mutant Smac protein; monomeric Smac protein
T4 sequence: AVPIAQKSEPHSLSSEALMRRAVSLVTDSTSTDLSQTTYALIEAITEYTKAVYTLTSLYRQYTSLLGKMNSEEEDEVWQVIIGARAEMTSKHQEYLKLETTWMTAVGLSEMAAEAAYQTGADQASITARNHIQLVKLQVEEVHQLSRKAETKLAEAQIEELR

B1: caspase-9 (protein)
chain: MDEADRRLLRRCRLRLVEELQVDQLWDALLSRELFRPHMIEDIQRAGSGSRRDQARQLIIDLETRGSQALPLFISCLEDTGQDMLASFLRTNRQAAKLSKPTLENLTPVVLRPEIRKPEVLRPETPRPVDIGSGGFGDVGALESLRGNADLAYILSMEPCGHCLIINNVNFCRESGLRTRTGSNIDCEKLRRRFSSLHFMVEVKGDLTAKKMVLALLELAQQDHGALDCCVVVILSHGCQASHLQFPGAVYGTDGCPVSVEKIVNIFNGTSCPSLGGKPKLFFIQACGGEQKDHGFEVASTSPEDESPGSNPEPDATPFQEGLRTFDQLDAISSLPTPSDIFVSYSTFPGFVSWRDPKSGSWYVETLDDIFEQWAHSEDLQSLLLRVANAVSVKGIYKQMPGCFNFLRKKLFFKTS
B2: XIAP-BIR3 (residues 238-358) (other, mammalian, UniProt P98170 238-358, looked up)
chain: T3 chain
notes: Overexpressed as a GST fusion (pGEX-2T) and purified as in Chai et al. 2000; also called BIR3 domain of XIAP; third BIR domain of XIAP

Columns and labels:
[1] = molecular target: T1, DIAP1-BIR1 (residues 1-145); test: gel filtration of BIR domain with excess peptide, then reverse phase HPLC and mass spectroscopy
Description: (§1) In vitro interaction assay. […] The mixture was fractionated by gel filtration chromatography (Superdex-200, Pharmacia). The protein-containing fractions were analyzed by reverse phase HPLC and mass spectroscopy for detection of the bound peptide.

[2] = molecular target: B2; test: isothermal titration calorimetry
[3] = molecular target: T2, DIAP1-BIR2 (residues 201-325); test: isothermal titration calorimetry, 23 °C
Description: Isothermal microcalorimetry titration. All proteins and peptides was prepared in 50 mM sodium phosphate buffer, pH 7.5. The Micro Calorimetry System (Microcal, Amherst, Mass.) was used to perform the ITC measurements for the interaction between DIAP1-BIR2 and various synthetic peptides. The titration data, collected at 23° C., were analyzed using the ORIGIN data analysis software (Microcal Software, Northampton, Mass.).

[4] = molecular target: T3, XIAP-BIR3 (residues 238-358), P98170
[5] = molecular target: T4, Smac (Phe33Asp, residues 1-162), …; test: reconstituted binary complex, in solution and co-crystallised
Description: Crystallization and data collection. […] At 23° C., the reservoir contained 100 mM citrate buffer, pH 5.5, 5% PEG 4000, and 10% isopropanol. Crystals appeared after 1–4 days and reached a maximum size over a period of 1–3 weeks. Both crystals are in the triclinic space group P1 and contain two complexes in each unit cell. […] Diffraction data were primarily collected using an R-AXIS-IV imaging plate detector mounted on a Rigaku 200HB generator. Derivatives were obtained by soaking crystals in reservoir buffer containing 20% glycerol (v/v) and heavy atoms. The concentration and soaking time for mercury thimerosal were 1 mM and 20 hours, respectively. To collect data at −170° C., crystals were equilibrated in a cryoprotectant buffer containing reservoir buffer plus 20% glycerol (v/v) and were flash frozen in a cold nitrogen stream. The high-resolution native data were collected at the NSLS beamline X4A.

[6] = molecular target: T2, DIAP1-BIR2 (residues 201-325); test: gel filtration and mass spectroscopic analyses (data not shown)
Description: as §1
Rationale and structure determination.

binding result [1]: no binding | fold difference in binding affinity between the Hid and Grim peptides [2]: ~100 fold | fold higher binding affinity than the Grim peptide [3]: 6 fold
Binder: AVPFYLPEGG [10-residue Hid peptide (N-terminal peptide of Hid)]

Binder: B1
caspase-9 activity (cleavage of Ac-LEHD-AFC), direct assay [4]: the inhibition of caspase-9 by the BIR3 domain of XIAP

Binder: B2
binding result [5]: binds

binding result [1]: no binding | binding result [6]: binds | binding result [2]: binds
Binder: AIAYFIPDQA [10-residue Grim peptide (N-terminal peptide of Grim)]
